B1: CPEB3 Ribozyme (parent)
chain: UAACAGGGGGCCACAGCAGAAGCGUUCACGUCGCAGCCCCUGUCAGAUUCUGGUGAAUCUGCGAAUUCUGCUGUAUAUCUC

Variants of: B1
Test: self-cleavage, relative activity (ratio to wild type); higher = more cleavage; in vitro, sequencing
Summary of the method: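 Libraries of CPEB3 self-cleaving ribozyme mutants came from rounds of error-prone PCR and carried barcodes, which DNA sequencing matched to variants. In vitro transcription used T7 RNA polymerase at 37°C for 5 hours, with a further 15 min in DNase I before EDTA stopped the reaction; the ribozymes cleaved during both steps. The RNA was reverse transcribed with template switching and sequenced on Illumina. Relative activity is the cleaved/total read fraction of a variant divided by that of the unmutated ribozyme, averaged over three batches with at least 5 reads.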

Which self-cleavage does the source give for UAACAGGGGGCCACAGCAGAAGCGCUCACGUCGCAGCCCCUGUCAGAUCCUGGUGAAUCUGCGAAUUCUGCUGUAUAUCUC [U25C U49C] here?
The self-cleavage was 0.21.

Which self-cleavage does the source give for UAACAGGGGGCCACAGCAGAAGCGCUCACGUCGCAGCCCCUGUCAGAUACUGGUGAAUCUGCGAAUUCUGCUGUAUAUCUC [U25C U49A] here?
Its self-cleavage is 0.3.

For UAACAGGGGGCCACAGCAGAAGCGCUCACGUCGCAGCCCCUGUCAGAUUCUGAUGAAUCUGCGAAUUCUGCUGUAUAUCUC [U25C G53A], which self-cleavage is on record?
Its self-cleavage is 0.43.

For UAACAGGGGGCCACAGCAGAAGCGCUCACGUCGCAGCCCCUGUCAGAUUCUGCUGAAUCUGCGAAUUCUGCUGUAUAUCUC [U25C G53C], which self-cleavage is on record?
Its self-cleavage is 0.15.

With UAACAGGGGGCCACAGCAGAAGCGCUCACGUCGCAGCCCCUGUCAGAUUCUGGUGAAUCUGCGAAUUAUGCUGUAUAUCUC [U25C C68A] as the variant, how does the self-cleavage read?
Its self-cleavage is 0.24.

For UAACAGGGGGCCACAGCAGAAGCGCGCACGUCGCAGCCCCUGUCAGAUUCUGGUGAAUCUGCGAAUUCUGCUGUAUAUCUC [U25C U26G], which self-cleavage is on record?
Its self-cleavage is 0.31.

Which self-cleavage does the source give for UAACAGGGGGCCACAGCAGAAGCGCACACGUCGCAGCCCCUGUCAGAUUCUGGUGAAUCUGCGAAUUCUGCUGUAUAUCUC [U25C U26A] here?
Its self-cleavage is 0.28.

Which self-cleavage does the source give for UAACAGGGGGCCACAGCAGAAGCGCCCACGUCGCAGCCCCUGUCAGAUUCUGGUGAAUCUGCGAAUUCUGCUGUAUAUCUC [U25C U26C] here?
The self-cleavage was 0.27.

With UAACAGGGGGCCACAGCAGAAGCGCUCACGUCGCAACCCCUGUCAGAUUCUGGUGAAUCUGCGAAUUCUGCUGUAUAUCUC [U25C G36A] as the variant, how does the self-cleavage read?
The self-cleavage was 0.17.

With UAACAGGGGGCCACAGCAGAAGCGCUCACGUCGCAUCCCCUGUCAGAUUCUGGUGAAUCUGCGAAUUCUGCUGUAUAUCUC [U25C G36U] as the variant, how does the self-cleavage read?
The self-cleavage was 0.16.

Which self-cleavage does the source give for UAACAGGGGGCCACAGCAGAAGCGCUCACGACGCAGCCCCUGUCAGAUUCUGGUGAAUCUGCGAAUUCUGCUGUAUAUCUC [U25C U31A] here?
The self-cleavage was 0.25.

For UAACAGGGGGCCACAGCAGAAGCGCUCACGCCGCAGCCCCUGUCAGAUUCUGGUGAAUCUGCGAAUUCUGCUGUAUAUCUC [U25C U31C], which self-cleavage is on record?
Its self-cleavage is 0.23.

With UAACAGGGGGCCACAGCAGAAGCGCUCACGGCGCAGCCCCUGUCAGAUUCUGGUGAAUCUGCGAAUUCUGCUGUAUAUCUC [U25C U31G] as the variant, how does the self-cleavage read?
The self-cleavage was 0.23.

With UAACAGGGGGCCACAGCAGAAGCGCUCACGUCGCAGCCCCUGUCAGAUUCUGGUGAAACUGCGAAUUCUGCUGUAUAUCUC [U25C U58A] as the variant, how does the self-cleavage read?
Its self-cleavage is 0.29.

For UAACAGGGGGCCACAGCAGAAGCGCUCACGUCGCAGCCCCUGUCAGAUUCUGGUGAAUCUGCCAAUUCUGCUGUAUAUCUC [U25C G63C], which self-cleavage is on record?
Its self-cleavage is 0.26.

Which self-cleavage does the source give for UAACAGGGGGCCACAGCAGAAGCGCUCACGUCGCAGCCCCUGUCAGAUUCUGGUGAAUCUGCUAAUUCUGCUGUAUAUCUC [U25C G63U] here?
The self-cleavage was 0.3.

For UAACAGGGGGCCACAGCAGAAGCGCUCACGUCGCAGCCCCUGUCAGAUUCUGGUGAAUCUGCAAAUUCUGCUGUAUAUCUC [U25C G63A], which self-cleavage is on record?
Its self-cleavage is 0.37.

For UAACAGGGGGCCACAGCAGAAGCGCUCACGUCGCAGCCCCUGUCAGAUUCUGGUGAAUCUGCGAAUUCUGGUGUAUAUCUC [U25C C71G], which self-cleavage is on record?
The self-cleavage was 0.1.

Which self-cleavage does the source give for UAACAGGGGGCCACAGCAGAAGCGCUCACGUCGCAGCCCCUGUCAGAUUCUGGUGAAUCUGCGAAUUCUGAUGUAUAUCUC [U25C C71A] here?
The self-cleavage was 0.13.

With UAACAGGGGGCCACAGCAGAAGCGCUCACGUCGCAGCCCCUGUCAGAUUCUGGUGAAUCUGCGAAUUCUGUUGUAUAUCUC [U25C C71U] as the variant, how does the self-cleavage read?
The self-cleavage was 0.1.

With UAACAGGGGGCCACAGCAGAAGCGCUCACGUCGCAGCCCCUGUCAAAUUCUGGUGAAUCUGCGAAUUCUGCUGUAUAUCUC [U25C G46A] as the variant, how does the self-cleavage read?
The self-cleavage was 0.28.

Which self-cleavage does the source give for UAACAGGGGGCCACAGCAGAAGCGCUCACGUCGCAGCCCCUGUCAUAUUCUGGUGAAUCUGCGAAUUCUGCUGUAUAUCUC [U25C G46U] here?
The self-cleavage was 0.2.

Which self-cleavage does the source give for UAACAGGGGGCCACAGCAGAAGCGCUCACGUCGCAGCCCCUGUCACAUUCUGGUGAAUCUGCGAAUUCUGCUGUAUAUCUC [U25C G46C] here?
The self-cleavage was 0.

Which self-cleavage does the source give for UAACAGGGGGCCACAGCAGAAGCGCUCACGUCGCAGCCCCUGUCAGAUUCUGGUGAAUCUGCGAAUUCUGCUUUAUAUCUC [U25C G73U] here?
The self-cleavage was 0.43.

Which self-cleavage does the source give for UAACAGGGGGCCACAGCAGAAGCGCUCACGUCGCAGCCCCUGUCAGAUUCUGGAGAAUCUGCGAAUUCUGCUGUAUAUCUC [U25C U54A] here?
The self-cleavage was 0.28.

For UAACAGGGGGCCACAGCAGAAGCGCUCACGUCGCAGCCCCUGUCAGAUUCUGGGGAAUCUGCGAAUUCUGCUGUAUAUCUC [U25C U54G], which self-cleavage is on record?
The self-cleavage was 0.31.

For UAACAGGGGGCCACAGCAGAAGCGCUCACGUCGCAGCCCCUGUCAGAUUCUGGCGAAUCUGCGAAUUCUGCUGUAUAUCUC [U25C U54C], which self-cleavage is on record?
The self-cleavage was 0.27.

Which self-cleavage does the source give for UAACAGGGGGCCACAGCAGAAGCGCUCACGUCGCAGCCCCUGCCAGAUUCUGGUGAAUCUGCGAAUUCUGCUGUAUAUCUC [U25C U43C] here?
Its self-cleavage is 0.3.

Which self-cleavage does the source give for UAACAGGGGGCCACAGCAGAAGCGCUCACGUCGCAGCCCCUGACAGAUUCUGGUGAAUCUGCGAAUUCUGCUGUAUAUCUC [U25C U43A] here?
Its self-cleavage is 0.34.

Which self-cleavage does the source give for UAACAGGGGGCCACAGCAGAAGCGCUCACGUCGCAGCCCCUGGCAGAUUCUGGUGAAUCUGCGAAUUCUGCUGUAUAUCUC [U25C U43G] here?
Its self-cleavage is 0.35.

For UAACAGGGGGCCACAGCAGAAGCGCUCACGUCGCAGCCCCUGUCAGAUUCUUGUGAAUCUGCGAAUUCUGCUGUAUAUCUC [U25C G52U], which self-cleavage is on record?
The self-cleavage was 0.29.

With UAACAGGGGGCCACAGCAGAAGCGCUCACGUCGCAGCCCCUGUCAGAUUCUCGUGAAUCUGCGAAUUCUGCUGUAUAUCUC [U25C G52C] as the variant, how does the self-cleavage read?
The self-cleavage was 0.58.

With UAACAGGGGGCCACAGCAGAAGCGCUCACGUCGCAGCCCCUGUCAGAUUCUAGUGAAUCUGCGAAUUCUGCUGUAUAUCUC [U25C G52A] as the variant, how does the self-cleavage read?
Its self-cleavage is 0.26.

For UAACAGGGGGCCACAGCAGAAGCGCUCACGUCGCAGCCCCUGUCAGAUUCUGGUGAAUCUGCGAAUUCUACUGUAUAUCUC [U25C G70A], which self-cleavage is on record?
The self-cleavage was 0.3.

From the RNAGym collection of RNA variant scans (doi:10.1093/nar/gkz1192)
